In the supplement of paper PMC9170038:

Test system: MS2 coat protein
Test: apparent KD of MS2 coat protein; designed switch direction (-1 OFF switch, 1 ON switch): -1; higher = weaker reporter binding
Procedure, shortened: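 The apparent KD reported per design is the median over clusters of curve fits to normalised cluster fluorescence. The RNA switches were transcribed on Illumina chips by stalled E. coli RNA polymerase. SNAP-549-labelled MS2 coat protein was titrated from 0.7 or 1.5 nM, doubling up to 3 µM, in Tris-HCl pH 7.5 buffer containing KCl, MgCl2, BSA, DTT, tRNA and Tween-20, with no input, 200 uM small-molecule ligand, or an oligonucleotide input.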

[1] = Eterna round: R95, input ligand: FMN 200 uM
[2] = Eterna round: R95, input ligand: microRNA oligo, concentration not stated
[3] = Eterna round: R95, input ligand: none
[4] = input ligand: microRNA oligo, concentration not stated

Sequence | apparent KD of MS2 coat protein [1] | apparent KD of MS2 coat protein [2] | apparent KD of MS2 coat protein [3] | apparent KD of MS2 coat protein [4] | apparent KD of MS2 coat protein (input ligand: FMN 200 uM) | apparent KD of MS2 coat protein (input ligand: none)
AUGGUCCGAGGAUAUAUUAUGUGAUACAUGAGGAUCACCCAUGUUAUAUGAUGGAUGUUAGUAGAAGGCGGACUAC [salish99_ex5_r3_002] (puzzle: Exclusion 5) | 89.3 nM | 82.2 nM | 103 nM | – | – | –
AUGGUUCGGUCAGGAUAUCGUAGAUUGAAUAGUAUGAUUUACAUGAGGAUCACCCAUGUUACAUACGAGAAGGGACCGAAUCAU [JR_ExcNG2_Sub024] (Eterna round: R96, puzzle: Exclusion NG 2) | – | – | – | 10.4 nM | – | –
AUGUACCGGUGAGGAUAUUUAUAAUAGAGCUUUAUGAUAUACAUGAGGAUCACCCAUGUUACUUUAAAGAAGGCAUCGGAUUAA [Mat - Exclusion NG 2 - Mod of JL - D91] (Eterna round: R96, puzzle: Exclusion NG 2) | – | – | – | 15.3 nM | 15.3 nM | 21.2 nM
AUGUGACAUGAGGAUCACCCAUGUCAGGAUAUUUCCAAAAUAAAAUAAAACCGCGUGGAAAGAAGGGACGUGGC [EX1 A.4] (Eterna round: R97, puzzle: Exclusion 1) | – | – | – | – | 27.4 nM | 21.9 nM
AUGUGCACGCUGCGGUCCUACAUGAGGAUCACCCAUGUGGUCUGGUGGCGUGGGUCACCGGACUUGGCUCGUCUUGA [salish99_S_TOV1_R5_055] (Eterna round: R97, puzzle: Sensor, turn-off variant 1) | – | – | – | – | 56 nM | 51.9 nM
AUGUGCACGCUGCGGUCCUACAUGAGGAUCACCCAUGUGGUCUGGUGGCGUGGGUCACCGGACUUGGCUCGUCUUGU [salish99_S_TOV1_R5_056] (Eterna round: R97, puzzle: Sensor, turn-off variant 1) | – | – | – | – | 33.7 nM | 40.1 nM
AUGUGCACGCUGCGGUCCUACAUGAGGAUCACCCAUGUGGUCUGGUGGCGUGGGUCGCCGGACUUGGCUCGUCUUGG [salish99_S_TOV1_R5_031] (Eterna round: R97, puzzle: Sensor, turn-off variant 1) | – | – | – | – | 15.6 nM | 15.9 nM
AUGUGCUGCUAAGGAUAUGUGAACUGUUUCCGAAUAGAAGGUAGCUAUACAUGAGGAUCACCCAUGUACGUGAACCGAGUAAAA [Eternabot solution 20] (Eterna round: R96, puzzle: Exclusion NG 1) | – | – | – | 19 nM | 20 nM | 24.6 nM
AUGUUGCGAGGAUAUAUAAGGGUAUAUUAAUAAGAUAUGGAACAUGAGGAUCACCCAUGUAGAAGGUGCAUAAC [JR_Ex2_Sub041] (Eterna round: R97, puzzle: Exclusion 2) | – | – | – | – | 45.6 nM | 33.6 nM
AUGUUGCGAGGAUAUAUAAGGGUAUAUUCAUAAGAUAUGGAACAUGAGGAUCACCCAUGUAGAAGGUGCAUAAC [JR_Ex2_Sub042] (Eterna round: R97, puzzle: Exclusion 2) | – | – | – | – | 200 nM | 46.2 nM
AUGUUUGUAGUGAGGAUAUCGUUGAGGAAGAGGAUCGAGAAGGCACAUGAGGAUCACCCAUGUAAGAUGUGGUA [JR_BMOE4_Sub081] (puzzle: Brourd's mod of Exclusion 4) | 69.9 nM | 61.2 nM | 55.5 nM | – | – | –
AUUAAACGUGUAGGAUAUGCGUGGCGAAGCUAUGCAGAAGGACAUGAGGAUCACCCAUGUUCUAGCGUCUGCGUACAGAUGCUA [JL eng1 1.35 mod 5] (Eterna round: R96, puzzle: Exclusion NG 1) | – | – | – | 11.4 nM | 25.1 nM | 16.3 nM
AUUAAAUAAGGAUAUACAUGAGGAUCACCCAUGUGUAGCAAGGUGUUGCGAUCCGCAAGUAGAAGGUGUAUAAU [Eternabot (L2) Solution 2] (Eterna round: R97, puzzle: Exclusion 3) | – | – | – | – | 49.6 nM | 32 nM
AUUAAUGUCAAAGGAUAUCAGCACGUUUAGUGCUGAGAAGGUUGAACAUGAGGAUCACCCAUGUAGAUCAUUAAUAAUUUAAUU [ENG1/10-B1] (Eterna round: R96, puzzle: Exclusion NG 1) | – | – | – | 18.9 nM | 23.5 nM | 18.2 nM
AUUAAUUGUCAGAUGGGUGACAUGAGGAUCACCCAUGUCACAAGCUUUUUGCUCGUCUUAUAAUUAACCCAUCUGAC [Stov1/11-A2] (Eterna round: R97, puzzle: Sensor, turn-off variant 1) | – | – | – | – | 14.1 nM | 13.3 nM
AUUACUAACACGAAAGUGUUAGUACAAUAAGCUUGUGAAACAUGAGGAUCACCCAUGUCCUCAUAAGCUCGUCUUAA [salish99_TOv2_r3_010] (puzzle: Sensor v3, turn-off variant 2) | 14 nM | 217 nM | 11.9 nM | – | – | –

Sequence | apparent KD of MS2 coat protein [1] | apparent KD of MS2 coat protein [2] | apparent KD of MS2 coat protein [3] | apparent KD of MS2 coat protein [4] | apparent KD of MS2 coat protein (input ligand: FMN 200 uM) | apparent KD of MS2 coat protein (input ligand: none)
AUUAGAUGAGGAUAUACAUGGUUGCGGGUGCGGCAGGAUCUACAUGAGGAUCACCCAUGUAGAAGGCAUGUAUC [EX2 C.22] (Eterna round: R97, puzzle: Exclusion 2) | – | – | – | – | 16.3 nM | 13.8 nM
AUUAGCGUAGGAUAUUGAUACAUGUACAUGAGGAUCACCCAUGUGAGGUGAGUCUUGGAUUAAGAAGGGCGAAGAA [EX5 #37] (Eterna round: R97, puzzle: Exclusion 5) | – | – | – | – | 1080 nM | 1270 nM
AUUAGUAUCUAGGAUAUCUAGUACAUAGUAUCUAGAGAAGGAGAUACAUGAGGAUCACCCAUGUUCUGUGUUCU [Exclusion 6 - 1:d] (puzzle: Exclusion 6) | – | 20.3 nM | – | – | – | –
AUUAUAAAUGUAGGAUAUCUGCACGAUUAGUGCAGAGAAGGACAUGAGGAUCACCCAUGUAGAUCAAUAAUAAUUAAUUUAAUU [ENG1/5-B1] (Eterna round: R96, puzzle: Exclusion NG 1) | – | – | – | 34 nM | 184 nM | 39.8 nM
AUUAUAUAGACAGGAUAUUGAUUAUUAUUUUAACAUGAGGAUCACCCAUGUAACCUUAUGUGUAACAAGAAGGGUCAUUUAUUA [Title] (Eterna round: R96, puzzle: Exclusion NG 2) | – | – | – | 99.6 nM | 188 nM | 106 nM
AUUAUAUAGGUAGGAUAUAGAAUAUUAUUUUAACAUGAGGAUCACCCAUGUAACCUUAUGUGUAGCUAGAAGGACCAUUUAUUA [Title] (Eterna round: R96, puzzle: Exclusion NG 2) | – | – | – | 64.6 nM | – | –
AUUAUGUAAGGAUAUCUUACAUGUGACUUCGGUCACUGUUAAGAGAAGGUACAUGAGGAUCACCCAUGUAGAAC [Ex4-3: 47] (puzzle: Exclusion 4) | – | 18.1 nM | – | – | – | –
AUUAUGUUAGGAUAUUAUUUGCCCUACUAAGGCACGAGAAGUAAGAAGGGACAUGAGGAUCACCCAUGUUGGAG [Eternabot (L2) Solution 71] (Eterna round: R97, puzzle: Exclusion 4) | – | – | – | – | 30.3 nM | 42.7 nM
AUUAUUUAAGUCAGGAUAUCGUAUUUAUUUAAAUACGAGAAGGGACAUGAGGAUCACCCAUGUAAUAAAUUUUA [JMFs Solution 2] (puzzle: Brourd's mod of Exclusion 4) | – | 16.6 nM | – | – | – | –
AUUCAACAUGAGGAUCACCCAUGUGAGGAUAUGCGAGAAUAGACUUCGGUCAGAUAGAGCAGAAGGCGCAGAUA [EX1 #5] (Eterna round: R97, puzzle: Exclusion 1) | – | – | – | – | 22 nM | 29.1 nM
AUUCCACAUGAGGAUCACCCAUGUGAGGAUAUCAUGCUUCGUAGUAAACUACGAAGUGUGAGAAGGCACAAUGG [Omei Ex1 C3] (Eterna round: R97, puzzle: Exclusion 1) | – | – | – | – | 183 nM | 62 nM
AUUCCUUGUGUUAGGAUAUGUCACUACCGUAUGCGACAGAAGGAACAUGAGGAUCACCCAUGUGAGUUAGCCGA [Usened] (puzzle: Brourd's mod of Exclusion 4) | – | 52.4 nM | – | – | – | –
AUUGAUAGCACAGGAUAUUGAGAUUUGAAUUGACAAGAAGGGUGUACAUGAGGAUCACCCAUGUAAUGGGAGAAUGAUUGAUUA [JR_ExcNG1_Sub001] (Eterna round: R96, puzzle: Exclusion NG 1) | – | – | – | 1040 nM | 1260 nM | 1640 nM
AUUGAUGUUGAGGAUAUGCAUAUAUUUAUACUAGCAGAAGGCGAUACAUGAGGAUCACCCAUGUUCAUGGAAGU [JR_E6_Sub093] (puzzle: Exclusion 6) | 39.1 nM | 24.7 nM | 28 nM | – | – | –
AUUGAUGUUGAGGAUAUGCUUUUAUUUAUAAUAGCAGAAGGCGAUACAUGAGGAUCACCCAUGUUCAUGGUAGU [JR_E6_Sub095] (Eterna round: R96, puzzle: Exclusion 6) | – | – | – | 52.3 nM | 77.6 nM | 63.4 nM
